Test results taken from PMC7954794, “Protein context shapes the specificity of SH3 domain-mediated interactions in vivo” (Nature Communications, 2021).

B1: ABP1 L48L (protein, UniProt P15891 2-592, looked up)
Actin-binding protein: ALEPIDYTTHSREIDAEYLKIVRGSDPDTTWLIISPNAKKEYEPESTGSSFHDFLQLFDETKVQYGLARVSPPGSDVEKIIIIGWCPDSAPLKTRASFAANFAAVANNLFKGYHVQVTARDEDDLDENELLMKISNAAGARYSIQTSSKQQGKASTPPVKKSFTPSKSPAPVSKKEPVKTPSPAPAAKISSRVNDNNDDDDWNEPELKERDFDQAPLKPNQSSYKPIGKIDLQKVIAEEKAKEDPRLVQKPTAAGSKIDPSSDIANLKNESKLKRDSEFNSFLGTTKPPSMTESSLKNDDDKVIKGFRNEKSPAQLWAERKAKQNSGNAETKAEAPKPEVPEDEPEGEPDVKDLKSKFEGLAASEKEEEEMENKFAPPPKKSEPTIISPKPFSKPQEPVKAEEAEQPKTDYKKIGNPLPGMHIEADNEEEPEENDDDWDDDEDEAAQPPLPSRNVASGAPVQKEEPEQEEIAPSLPSRNSIPAPKQEEAPEQAPEEEIEEEAEEAAPQLPSRSSAAPPPPPRRATPEKKPKENPWATAEYDYDAAEDNELTFVENDKIINIEFVDDDWWLGELEKDGSKGLFPSNYVSLGN
modifications: synonymous codon change L48L
B2: ABP1 F49F (protein, UniProt P15891 2-592, looked up)
Actin-binding protein: ALEPIDYTTHSREIDAEYLKIVRGSDPDTTWLIISPNAKKEYEPESTGSSFHDFLQLFDETKVQYGLARVSPPGSDVEKIIIIGWCPDSAPLKTRASFAANFAAVANNLFKGYHVQVTARDEDDLDENELLMKISNAAGARYSIQTSSKQQGKASTPPVKKSFTPSKSPAPVSKKEPVKTPSPAPAAKISSRVNDNNDDDDWNEPELKERDFDQAPLKPNQSSYKPIGKIDLQKVIAEEKAKEDPRLVQKPTAAGSKIDPSSDIANLKNESKLKRDSEFNSFLGTTKPPSMTESSLKNDDDKVIKGFRNEKSPAQLWAERKAKQNSGNAETKAEAPKPEVPEDEPEGEPDVKDLKSKFEGLAASEKEEEEMENKFAPPPKKSEPTIISPKPFSKPQEPVKAEEAEQPKTDYKKIGNPLPGMHIEADNEEEPEENDDDWDDDEDEAAQPPLPSRNVASGAPVQKEEPEQEEIAPSLPSRNSIPAPKQEEAPEQAPEEEIEEEAEEAAPQLPSRSSAAPPPPPRRATPEKKPKENPWATAEYDYDAAEDNELTFVENDKIINIEFVDDDWWLGELEKDGSKGLFPSNYVSLGN
modifications: synonymous F49F
B3: ABP1 P50P (protein, UniProt P15891 2-592, looked up)
Actin-binding protein: ALEPIDYTTHSREIDAEYLKIVRGSDPDTTWLIISPNAKKEYEPESTGSSFHDFLQLFDETKVQYGLARVSPPGSDVEKIIIIGWCPDSAPLKTRASFAANFAAVANNLFKGYHVQVTARDEDDLDENELLMKISNAAGARYSIQTSSKQQGKASTPPVKKSFTPSKSPAPVSKKEPVKTPSPAPAAKISSRVNDNNDDDDWNEPELKERDFDQAPLKPNQSSYKPIGKIDLQKVIAEEKAKEDPRLVQKPTAAGSKIDPSSDIANLKNESKLKRDSEFNSFLGTTKPPSMTESSLKNDDDKVIKGFRNEKSPAQLWAERKAKQNSGNAETKAEAPKPEVPEDEPEGEPDVKDLKSKFEGLAASEKEEEEMENKFAPPPKKSEPTIISPKPFSKPQEPVKAEEAEQPKTDYKKIGNPLPGMHIEADNEEEPEENDDDWDDDEDEAAQPPLPSRNVASGAPVQKEEPEQEEIAPSLPSRNSIPAPKQEEAPEQAPEEEIEEEAEEAAPQLPSRSSAAPPPPPRRATPEKKPKENPWATAEYDYDAAEDNELTFVENDKIINIEFVDDDWWLGELEKDGSKGLFPSNYVSLGN
modifications: synonymous codon change P50P
B4: ABP1 S51S (protein, UniProt P15891 2-592, looked up)
Actin-binding protein: ALEPIDYTTHSREIDAEYLKIVRGSDPDTTWLIISPNAKKEYEPESTGSSFHDFLQLFDETKVQYGLARVSPPGSDVEKIIIIGWCPDSAPLKTRASFAANFAAVANNLFKGYHVQVTARDEDDLDENELLMKISNAAGARYSIQTSSKQQGKASTPPVKKSFTPSKSPAPVSKKEPVKTPSPAPAAKISSRVNDNNDDDDWNEPELKERDFDQAPLKPNQSSYKPIGKIDLQKVIAEEKAKEDPRLVQKPTAAGSKIDPSSDIANLKNESKLKRDSEFNSFLGTTKPPSMTESSLKNDDDKVIKGFRNEKSPAQLWAERKAKQNSGNAETKAEAPKPEVPEDEPEGEPDVKDLKSKFEGLAASEKEEEEMENKFAPPPKKSEPTIISPKPFSKPQEPVKAEEAEQPKTDYKKIGNPLPGMHIEADNEEEPEENDDDWDDDEDEAAQPPLPSRNVASGAPVQKEEPEQEEIAPSLPSRNSIPAPKQEEAPEQAPEEEIEEEAEEAAPQLPSRSSAAPPPPPRRATPEKKPKENPWATAEYDYDAAEDNELTFVENDKIINIEFVDDDWWLGELEKDGSKGLFPSNYVSLGN
modifications: synonymous codon S51S
B5: ABP1 Y53Y (protein, UniProt P15891 2-592, looked up)
Actin-binding protein: ALEPIDYTTHSREIDAEYLKIVRGSDPDTTWLIISPNAKKEYEPESTGSSFHDFLQLFDETKVQYGLARVSPPGSDVEKIIIIGWCPDSAPLKTRASFAANFAAVANNLFKGYHVQVTARDEDDLDENELLMKISNAAGARYSIQTSSKQQGKASTPPVKKSFTPSKSPAPVSKKEPVKTPSPAPAAKISSRVNDNNDDDDWNEPELKERDFDQAPLKPNQSSYKPIGKIDLQKVIAEEKAKEDPRLVQKPTAAGSKIDPSSDIANLKNESKLKRDSEFNSFLGTTKPPSMTESSLKNDDDKVIKGFRNEKSPAQLWAERKAKQNSGNAETKAEAPKPEVPEDEPEGEPDVKDLKSKFEGLAASEKEEEEMENKFAPPPKKSEPTIISPKPFSKPQEPVKAEEAEQPKTDYKKIGNPLPGMHIEADNEEEPEENDDDWDDDEDEAAQPPLPSRNVASGAPVQKEEPEQEEIAPSLPSRNSIPAPKQEEAPEQAPEEEIEEEAEEAAPQLPSRSSAAPPPPPRRATPEKKPKENPWATAEYDYDAAEDNELTFVENDKIINIEFVDDDWWLGELEKDGSKGLFPSNYVSLGN
modifications: synonymous codon change Y53Y

Assays:
Hua2 = assay: Deep mutational scanning of Abp1 SH3, Abp1-Hua2 DHFR-PCA (DMS score); type: cell-based, Saccharomyces cerevisiae; settings: for hua2sc: Frequencies scaled to the synonymous mutation distribution (DMS score) / HUA2_MTX2: frequencies normalized to the reference condition: Abp1-Hua2 DHFR-PCA, MTX2; for HUA2_MTX2: frequencies normalized to the reference condition: single amino acid variants of Abp1 SH3; for quadrant (effect of mutation on Hua2 and Lsb3 interactions): classification from both Hua2 and Lsb3 DMS scores, Dest. both / Dest. Hua2 / Dest. Lsb3 / Neutral
Description: (§1) Single site mutation libraries were generated by a PCR-based saturation mutagenesis method[50] as described below. The mutagenesis was carried out on the pUC19 plasmid containing the SH3 domain sequence of ABP1 flanked by its homology arms subsequently used in the CRISPR mediated genomic re-integration. We used oligos containing degenerate nucleotides (NNN) to carry out the mutagenesis at each codon of the domain sequence. In the first step of the two-step PCR procedure (short PCR step), an amplicon was generated with an oligo containing the degenerate codon which is positioned within the domain sequence, and another oligo lying outside Abp1 sequence in the plasmid. Short PCR step was carried out with the following settings: 5 min at 95 °C, 35 cycles: 20 s at 98 °C, 15 s at 60 °C, 30 s at 72 °C, and a final extension of 1 min at 72 °C. The amplicon generated in this step was used as a mega primer in the second step (long PCR step) to amplify the whole plasmid. Long PCR step was carried out with the following settings: 5 min at 95 °C, 22 cycles: 20 s at 98 °C, 15 s at 68 °C, 3 min 30 s at 72 °C, and a final extension of 5 min at 72 °C. The long PCR product was digested for 2 h at 37 °C with DpnI. The digestion product was then transformed into E. coli MC1061 competent cells. In order to obtain most of the 64 possible codons, we recovered ~1000 colonies from each plate to retrieve the plasmid single mutant libraries. Saturation mutagenesis was carried out in a codon-position-wise manner. Mutants at each position were stored separately. Library quality control was assessed by amplifying the purified plasmid DNA preparations by PCR followed by Illumina sequencing as described below. The genomic insertion of the mutant libraries (one library per amino acid position) was performed by targeting the stuffer sequence in the ABP1 SH3-deleted strain as described in the strain construction section. ABP1 SH3-deleted yeast competent cells were co-transformed with pCAS containing the stuffer-specific gRNA and PCR amplified ABP1 SH3 single position mutated libraries from the pUC19 preparations. As for the library generation, ~1000 colonies from each plate were retrieved. Glycerol stocks of yeast cells were kept for each position (58 different stocks corresponding to the 58 amino acid positions of Abp1 SH3). The stocks were also validated by Illumina sequencing (see below).
(§2) Liquid DHFR-PCA experiments were performed following the generation of the ABP1 SH3 single position mutated yeast strains and were performed in biological independent duplicates. An overnight culture was started in YPD + NAT by adding the same number of cells from each yeast mutant strain (master pool). Then, the master pool and Hua2-DHFR F[3] or Lsb3-DHFR F[3] preys strains were mixed in YPD (2:1) for mating and incubated for 8 h at 30 °C. Diploid cells were selected the first time by transferring the mixture in a YPD + NAT + HPH (OD 0.5) culture for 16 h at 30 °C. The next day, the first diploid selection was transferred in SC complete pH 6.0 + NAT + HPH at 0.5 OD and the culture was grown for 24 h at 30 °C. The validation of the yeast mutant libraries was done the next day with a fraction of the diploid cells (first DHFR-PCA experiment time point without PCA selection, reference condition S2) by amplifying ABP1 SH3 genomic sequence followed by Illumina sequencing as described in the section below. Following the selection, diploid cells OD was read using a TECAN Infinite F200 Pro, and dilutions to 0.1 OD in PCA selection media without agar in a 50 mL tube was done. Tubes were incubated at 30 °C for 72 h (second-time point of the DHFR-PCA experiment, first PCA selection). A fraction of the cells (5U OD) was collected for Illumina sequencing. The cells from the first PCA step were grown for a second PCA selection step using the same procedures. […]

Lsb3 = assay: Deep mutational scanning of Abp1 SH3, Abp1-Lsb3 DHFR-PCA (DMS score); type: cell-based, Saccharomyces cerevisiae; settings: Abp1-Lsb3 DHFR-PCA, MTX2; for LSB3_MTX2: frequencies normalized to the reference condition: single amino acid variants of Abp1 SH3
Description: as §1, §2

Row | Molecule | hua2sc: Frequencies scaled to the synonymous mutation distribution (DMS score) (Hua2) | HUA2_MTX2: frequencies normalized to the reference condition (Hua2) | quadrant (effect of mutation on Hua2 and Lsb3 interactions) (Hua2) | lsb3sc: Frequencies scaled to the synonymous mutation distribution (DMS score) (Lsb3) | LSB3_MTX2: frequencies normalized to the reference condition (Lsb3)
1 | B1 | -0.5549 | 1.058 | Neutral | -0.4967 | 1.0036
2 | B2 | 0.1177 | 1.73 | Neutral | -0.3759 | 1.124
3 | B3 | -0.6569 | 0.9559 | Neutral | -0.6263 | 0.874
4 | B4 | -0.02064 | 1.592 | Neutral | 0.05209 | 1.552
5 | B5 | -0.26 | 1.353 | Neutral | -0.1658 | 1.335
